Reference: the supplement of paper PMC9233669
Fewer inactive variants are shown than the library holds.

Legend:
biotinyl-Leu-oxazolone = experiment: self-aminoacylation, catalytic enhancement (BLO) (fold over background); higher = more active; k-Seq, kA / k0A0; sequences stand for … in GGGAAUGGAUCCACAUCUACGAAUUC…UUCACUGCAGACUUGACGAAGCUG
Method in brief: (§1)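 Catalytic enhancement equals the median kA over the uncatalyzed rate, the latter read from the low-activity peak of a bimodal Gaussian fit. Values of kA came from fitting each sequence's fraction reacted to a pseudo-first-order model, with 1000 bootstraps. Reacted RNA was captured with streptavidin and quantified by triplicate qPCR and Illumina sequencing after 90 minutes at room temperature with 2–1250 μM biotinyl-aminoacyl-oxazolone and 0.43 μM mutagenized RNA pools bearing a 21-nt variable region.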

biotinyl-Phe-oxazolone = experiment: self-aminoacylation, catalytic enhancement (BFO) (fold over background); higher = more active; k-Seq, kA / k0A0; sequences stand for … in GGGAAUGGAUCCACAUCUACGAAUUC…UUCACUGCAGACUUGACGAAGCUG
Method in brief: as §1

biotinyl-Ile-oxazolone = experiment: self-aminoacylation, catalytic enhancement (BIO) (fold over background); higher = more active; k-Seq, kA / k0A0; sequences stand for … in GGGAAUGGAUCCACAUCUACGAAUUC…UUCACUGCAGACUUGACGAAGCUG
Method in brief: as §1

biotinyl-Val-oxazolone = experiment: self-aminoacylation, catalytic enhancement (BVO) (fold over background); higher = more active; k-Seq, kA / k0A0; sequences stand for … in GGGAAUGGAUCCACAUCUACGAAUUC…UUCACUGCAGACUUGACGAAGCUG
Method in brief: as §1

biotinyl-Met-oxazolone = experiment: self-aminoacylation, catalytic enhancement (BMO) (fold over background); higher = more active; k-Seq, kA / k0A0; sequences stand for … in GGGAAUGGAUCCACAUCUACGAAUUC…UUCACUGCAGACUUGACGAAGCUG
Method in brief: as §1

biotinyl-Trp-oxazolone = experiment: self-aminoacylation, catalytic enhancement (BWO) (fold over background); higher = more active; k-Seq, kA / k0A0; sequences stand for … in GGGAAUGGAUCCACAUCUACGAAUUC…UUCACUGCAGACUUGACGAAGCUG
Method in brief: as §1

Sequence	self-aminoacylation (biotinyl-Leu-oxazolone)	self-aminoacylation (biotinyl-Phe-oxazolone)	self-aminoacylation (biotinyl-Ile-oxazolone)	self-aminoacylation (biotinyl-Val-oxazolone)	self-aminoacylation (biotinyl-Met-oxazolone)	self-aminoacylation (biotinyl-Trp-oxazolone)
AUUAGCCUGGUCAUUGAGUGA [Fam2.1 aminoacylation ribozyme variant]	10.3	62.6	4.89	5.01	9.25	12.3
CGCCUUCAAACAAUCGGUCUG [Fam1A.1 aminoacylation ribozyme variant]	3.13	146	1.59	1.8	1.94	55.5
AUUACCCUGGGCAUAGAGUGA [Fam2.1 aminoacylation ribozyme variant]	12.6	71.5	4.98	4.72	10.1	12.6
CCACACUUCUCGCAAUCGGUC [Fam1B.1 aminoacylation ribozyme variant]	1.04	0.867	1.06	1.09	0.889	0.888
UUACUUCAAACAAUAGGUCUG [Fam1A.1 aminoacylation ribozyme variant]	1.08	1.69	1.2	1.25	1.26	1.07
AUUCAGCUAGCUCAUCGGGUG [Fam2.2 aminoacylation ribozyme variant]	3.86	20.2	2.69	3.41	3.07	3.74
UUUCACCUAGGUCAUCGGGUG [Fam2.2 aminoacylation ribozyme variant]	19.5	103	9.15	8.76	15.9	13.4
AUUCAACUAGGUCAUCAGGUG [Fam2.2 aminoacylation ribozyme variant]	1.54	1.43	1.28	1.22	1.29	1.33
CCACACUGCAAGCAAUUGGUC [Fam1B.1 aminoacylation ribozyme variant]	0.961	0.969	1.14	0.956	0.87	0.59
AAGUUUGCUAAUAGUCCUAAG [Fam3.1 aminoacylation ribozyme variant]	1.05	14.5	1.21	1.13	1.31	4.71
AUUCACAGAGGUCAUCGGGUG [Fam2.2 aminoacylation ribozyme variant]	7.94	45.9	4.48	5.02	6.99	6.32
AUUCACCUAUGUCAUAGGGUG [Fam2.2 aminoacylation ribozyme variant]	1.75	1.08	1.36	1.15	1.46	0.856
CCUCACUUCAAGCGAUCGGUC [Fam1B.1 aminoacylation ribozyme variant]	1.53	2.38	1.19	1.29	1.27	2.72
AAGUUUCCUAAUAGUGGCAAG [Fam3.1 aminoacylation ribozyme variant]	0.642	0.605	0.838	0.902	0.752	0.634
CAACUUGAAACAAUCGGUCUG [Fam1A.1 aminoacylation ribozyme variant]	1.36	1.36	1.15	1.11	1.24	1.02
CUACCUCAAACAAUCGGUCUC [Fam1A.1 aminoacylation ribozyme variant]	0.752	2.7	0.869	1.07	0.879	1.42
CAACACUUCAAGUAAUCGGUC [Fam1B.1 aminoacylation ribozyme variant]	1.19	10.4	0.979	0.899	1.05	7.22
CCACACUUCAAGCAUUCUGUC [Fam1B.1 aminoacylation ribozyme variant]	0.284	0.618	0.414	0.497	0.32	0.372
CCACACUUCAAGCAAUGGGUA [Fam1B.1 aminoacylation ribozyme variant]	1.31	0.907	1.35	1.4	1.39	1.35
CUACUUCAAACCAUCGGUCUG [Fam1A.1 aminoacylation ribozyme variant]	0.661	0.956	0.794	0.833	0.702	0.673
GAGUUUGCUAAUAGUCGCAAC [Fam3.1 aminoacylation ribozyme variant]	0.998	1.19	1.4	1.19	1.31	1.2
